Test results: article PMC12636033, “Chemical Engineering of Transcription Factors Uncovered Cell-Permeable μMax Modulators”

B1: dBr_Jan07_19630 (dsDNA)
DNA 1: AAGCGAGCAGATAAGCCTAAGCCCGAGCTGAACAAAGTCTGTGTTCCGTTGTCCGTGCTG
DNA 2: CAGCACGGACAACGGAACACAGACTTTGTTCAGCTCGGGCTTAGGCTTATCTGCTCGCTT
B2: dBr_Jan07_18594 (dsDNA)
DNA 1: CCAACATCTAAGACCCTGGTAGGGCCTTTCCGACCCGTCTGTGTTCCGTTGTCCGTGCTG
DNA 2: CAGCACGGACAACGGAACACAGACGGGTCGGAAAGGCCCTACCAGGGTCTTAGATGTTGG
B3: dBr_Jan07_10789 (dsDNA)
DNA 1: ACGAGTGGCCCTCGCATCGCGGAAGCTAGACTGATTGTCTGTGTTCCGTTGTCCGTGCTG
DNA 2: CAGCACGGACAACGGAACACAGACAATCAGTCTAGCTTCCGCGATGCGAGGGCCACTCGT
B4: dBr_Jan07_38419 (dsDNA)
DNA 1: ATTGCTCAGTGACACAGATATGAAGCGCTATGCATCGTCTGTGTTCCGTTGTCCGTGCTG
DNA 2: CAGCACGGACAACGGAACACAGACGATGCATAGCGCTTCATATCTGTGTCACTGAGCAAT
B5: dBr_Jan07_17648 (dsDNA)
DNA 1: TTGCGCCCCCAGTCCCGGATATCATAGGAACGAGGAGTCTGTGTTCCGTTGTCCGTGCTG
DNA 2: CAGCACGGACAACGGAACACAGACTCCTCGTTCCTATGATATCCGGGACTGGGGGCGCAA
B6: dBr_Jan07_16464 (dsDNA)
DNA 1: AGATCCAACGAGAGTTATGGACAAACTGGTCCTACAGTCTGTGTTCCGTTGTCCGTGCTG
DNA 2: CAGCACGGACAACGGAACACAGACTGTAGGACCAGTTTGTCCATAACTCTCGTTGGATCT
B7: dBr_Jan07_23776 (dsDNA)
DNA 1: CAGCCGCGGCGCCTCTAGCAATCAGGAGCGTCGGTAGTCTGTGTTCCGTTGTCCGTGCTG
DNA 2: CAGCACGGACAACGGAACACAGACTACCGACGCTCCTGATTGCTAGAGGCGCCGCGGCTG
B8: dBr_Jan07_33794 (dsDNA)
DNA 1: TATTAGAATGTCAGCTCTCAATCACGTGATTCGGAAGTCTGTGTTCCGTTGTCCGTGCTG
DNA 2: CAGCACGGACAACGGAACACAGACTTCCGAATCACGTGATTGAGAGCTGACATTCTAATA
B9: dBr_Jan07_08921 (dsDNA)
DNA 1: CAGACAAAGTCACTGGGCGAGCATGAACCGTTTGCCGTCTGTGTTCCGTTGTCCGTGCTG
DNA 2: CAGCACGGACAACGGAACACAGACGGCAAACGGTTCATGCTCGCCCAGTGACTTTGTCTG
B10: dBr_Jan07_30609 (dsDNA)
DNA 1: CGGAAGTCAGATAAAAGGTGGTATCGCGGCTTTAAAGTCTGTGTTCCGTTGTCCGTGCTG
DNA 2: CAGCACGGACAACGGAACACAGACTTTAAAGCCGCGATACCACCTTTTATCTGACTTCCG
B11: dBr_Jan07_02776 (dsDNA)
DNA 1: GACGAAGTAAGGCTAGCTTGTCGCTAAAAAGACGCAGTCTGTGTTCCGTTGTCCGTGCTG
DNA 2: CAGCACGGACAACGGAACACAGACTGCGTCTTTTTAGCGACAAGCTAGCCTTACTTCGTC
B12: dBr_Jan07_00062 (dsDNA)
DNA 1: TGGTGACCTGAGAGGCCGGTTGCTTCAGCCTACAACGTCTGTGTTCCGTTGTCCGTGCTG
DNA 2: CAGCACGGACAACGGAACACAGACGTTGTAGGCTGAAGCAACCGGCCTCTCAGGTCACCA
B13: dBr_Jan07_40232 (dsDNA)
DNA 1: TCGCGGAGACACCGCACTACGAGTGGCGAGAAGACCGTCTGTGTTCCGTTGTCCGTGCTG
DNA 2: CAGCACGGACAACGGAACACAGACGGTCTTCTCGCCACTCGTAGTGCGGTGTCTCCGCGA
B14: dBr_Jan07_36814 (dsDNA)
DNA 1: GCGCAAGCCATGACCCGGTACGATTTAGAAATGGCGGTCTGTGTTCCGTTGTCCGTGCTG
DNA 2: CAGCACGGACAACGGAACACAGACCGCCATTTCTAAATCGTACCGGGTCATGGCTTGCGC
B15: dBr_Jan07_32293 (dsDNA)
DNA 1: TCGCGGCTCGAAGCACCCTCCCCAGGGGCATCAGCAGTCTGTGTTCCGTTGTCCGTGCTG
DNA 2: CAGCACGGACAACGGAACACAGACTGCTGATGCCCCTGGGGAGGGTGCTTCGAGCCGCGA
B16: dBr_Jan07_28571 (dsDNA)
DNA 1: TCGTTCTTATTTTGGCACGTGCACCCGCTTTGCTCAGTCTGTGTTCCGTTGTCCGTGCTG
DNA 2: CAGCACGGACAACGGAACACAGACTGAGCAAAGCGGGTGCACGTGCCAAAATAAGAACGA
B17: dBr_Jan07_31951 (dsDNA)
DNA 1: CATGAGAATCGGCCCGGGTTACGTTCGCGGTACAATGTCTGTGTTCCGTTGTCCGTGCTG
DNA 2: CAGCACGGACAACGGAACACAGACATTGTACCGCGAACGTAACCCGGGCCGATTCTCATG
B18: dBr_Jan07_14635 (dsDNA)
DNA 1: CCTAGAATTCCAACATGACTGTCAACTTGGGAATCTGTCTGTGTTCCGTTGTCCGTGCTG
DNA 2: CAGCACGGACAACGGAACACAGACAGATTCCCAAGTTGACAGTCATGTTGGAATTCTAGG
B19: dBr_Jan07_09107 (dsDNA)
DNA 1: TCTCCTGTGACAATTACGCCCCCCCCAGGCGCCTACGTCTGTGTTCCGTTGTCCGTGCTG
DNA 2: CAGCACGGACAACGGAACACAGACGTAGGCGCCTGGGGGGGGCGTAATTGTCACAGGAGA
B20: dBr_Jan07_26545 (dsDNA)
DNA 1: ACTGCGCCGGAGAGTTCAACGAACTACTACGTCGAAGTCTGTGTTCCGTTGTCCGTGCTG
DNA 2: CAGCACGGACAACGGAACACAGACTTCGACGTAGTAGTTCGTTGAACTCTCCGGCGCAGT
B21: dBr_Jan07_33770 (dsDNA)
DNA 1: GCGACCCTTCCACGTGCGTGTGTTAATGAGCGCATTGTCTGTGTTCCGTTGTCCGTGCTG
DNA 2: CAGCACGGACAACGGAACACAGACAATGCGCTCATTAACACACGCACGTGGAAGGGTCGC
B22: dBr_Jan07_18521 (dsDNA)
DNA 1: ACCAATTAGAACGTATCTATGGAGCTTGCCCGATCGGTCTGTGTTCCGTTGTCCGTGCTG
DNA 2: CAGCACGGACAACGGAACACAGACCGATCGGGCAAGCTCCATAGATACGTTCTAATTGGT
B23: dBr_Jan07_07252 (dsDNA)
DNA 1: ATCCTGCCGCTTTCAATCGCCGGACAGCGATCGACAGTCTGTGTTCCGTTGTCCGTGCTG
DNA 2: CAGCACGGACAACGGAACACAGACTGTCGATCGCTGTCCGGCGATTGAAAGCGGCAGGAT
B24: dBr_Jan07_04879 (dsDNA)
DNA 1: ATAACGGCCCGCCTGGACTGATACTCTGTCGCACCAGTCTGTGTTCCGTTGTCCGTGCTG
DNA 2: CAGCACGGACAACGGAACACAGACTGGTGCGACAGAGTATCAGTCCAGGCGGGCCGTTAT
B25: dBr_Jan07_39455 (dsDNA)
DNA 1: TGAAAGACCTTAGATGGGCTTGTCTCTTGGCGTTTGGTCTGTGTTCCGTTGTCCGTGCTG
DNA 2: CAGCACGGACAACGGAACACAGACCAAACGCCAAGAGACAAGCCCATCTAAGGTCTTTCA
B26: dBr_Jan07_22649 (dsDNA)
DNA 1: TTACATACCAGGACTTATCGCATAGGTAGGCTGAGAGTCTGTGTTCCGTTGTCCGTGCTG
DNA 2: CAGCACGGACAACGGAACACAGACTCTCAGCCTACCTATGCGATAAGTCCTGGTATGTAA
B27: dBr_Jan07_10036 (dsDNA)
DNA 1: CCGCGGACAGGTTCAGCCATCCGACTGCTACGCACAGTCTGTGTTCCGTTGTCCGTGCTG
DNA 2: CAGCACGGACAACGGAACACAGACTGTGCGTAGCAGTCGGATGGCTGAACCTGTCCGCGG
B28: dBr_Jan07_10189 (dsDNA)
DNA 1: GTTTGTGAGGTTCCTGACTCTGAGCGGACCGGTAGAGTCTGTGTTCCGTTGTCCGTGCTG
DNA 2: CAGCACGGACAACGGAACACAGACTCTACCGGTCCGCTCAGAGTCAGGAACCTCACAAAC
B29: dBr_Jan07_03145 (dsDNA)
DNA 1: CCGATTTAGGAGCGGGTAAATACAGGCAGCTCTCTGGTCTGTGTTCCGTTGTCCGTGCTG
DNA 2: CAGCACGGACAACGGAACACAGACCAGAGAGCTGCCTGTATTTACCCGCTCCTAAATCGG
B30: dBr_Jan07_22788 (dsDNA)
DNA 1: TTGTTTCGCATCGCTAGGCATTGATAACGGAAGCTGGTCTGTGTTCCGTTGTCCGTGCTG
DNA 2: CAGCACGGACAACGGAACACAGACCAGCTTCCGTTATCAATGCCTAGCGATGCGAAACAA
B31: dBr_Jan07_34791 (dsDNA)
DNA 1: GACTTGCCTACTACGCCAGAATTAGCTAGTTGGGTAGTCTGTGTTCCGTTGTCCGTGCTG
DNA 2: CAGCACGGACAACGGAACACAGACTACCCAACTAGCTAATTCTGGCGTAGTAGGCAAGTC
B32: dBr_Jan07_36343 (dsDNA)
DNA 1: ATCGGTTAAAGTAACTATATTGGGCTTATCGGACCAGTCTGTGTTCCGTTGTCCGTGCTG
DNA 2: CAGCACGGACAACGGAACACAGACTGGTCCGATAAGCCCAATATAGTTACTTTAACCGAT
B33: dBr_Jan07_39645 (dsDNA)
DNA 1: AGATCAAAACGTAAGACGACAGGCGAACTTCAGTAAGTCTGTGTTCCGTTGTCCGTGCTG
DNA 2: CAGCACGGACAACGGAACACAGACTTACTGAAGTTCGCCTGTCGTCTTACGTTTTGATCT

Target: WT Max (Homo sapiens, UniProt P61244-2 13-93, M65Nle, norleucine written as M; other non-natural residues written as X)
Experiment: PBM; 50-200 nM protein; PBS, 2% milk, BSA, salmon testes DNA, 0.02% Triton X-100
Settings: chain copies: 2; label: surface-attached array probe

WT Max, sequence (P61244 other isoform, or with tags, fused parts or gaps M65Nle): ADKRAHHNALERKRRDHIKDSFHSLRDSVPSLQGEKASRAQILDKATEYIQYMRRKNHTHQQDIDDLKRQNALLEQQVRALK

Row | Binder | binding signal
1 | B1 | -0.87 robust z of log adjusted intensity (ours), mean of two arrays
2 | B2 | -0.86 robust z of log adjusted intensity (ours), mean of two arrays
3 | B3 | -0.92 robust z of log adjusted intensity (ours), mean of two arrays
4 | B4 | -0.96 robust z of log adjusted intensity (ours), mean of two arrays
5 | B5 | -1.18 robust z of log adjusted intensity (ours), mean of two arrays
6 | B6 | -1 robust z of log adjusted intensity (ours), mean of two arrays
7 | B7 | -0.83 robust z of log adjusted intensity (ours), mean of two arrays
8 | B8 | 4.69 robust z of log adjusted intensity (ours), mean of two arrays
9 | B9 | -0.81 robust z of log adjusted intensity (ours), mean of two arrays
10 | B10 | -0.46 robust z of log adjusted intensity (ours), mean of two arrays
11 | B11 | -1.15 robust z of log adjusted intensity (ours), mean of two arrays
12 | B12 | -0.8 robust z of log adjusted intensity (ours), mean of two arrays
13 | B13 | -0.86 robust z of log adjusted intensity (ours), mean of two arrays
14 | B14 | -1.34 robust z of log adjusted intensity (ours), mean of two arrays
15 | B15 | -0.93 robust z of log adjusted intensity (ours), mean of two arrays
16 | B16 | 5.15 robust z of log adjusted intensity (ours), mean of two arrays
17 | B17 | -0.54 robust z of log adjusted intensity (ours), mean of two arrays

Row | Binder | binding signal
18 | B18 | -0.81 robust z of log adjusted intensity (ours), mean of two arrays
19 | B19 | -1.31 robust z of log adjusted intensity (ours), mean of two arrays
20 | B20 | -0.92 robust z of log adjusted intensity (ours), mean of two arrays
21 | B21 | 4.84 robust z of log adjusted intensity (ours), mean of two arrays
22 | B22 | -0.67 robust z of log adjusted intensity (ours), mean of two arrays
23 | B23 | -0.55 robust z of log adjusted intensity (ours), mean of two arrays
24 | B24 | -0.92 robust z of log adjusted intensity (ours), mean of two arrays
25 | B25 | -0.88 robust z of log adjusted intensity (ours), mean of two arrays
26 | B26 | -0.77 robust z of log adjusted intensity (ours), mean of two arrays
27 | B27 | -0.76 robust z of log adjusted intensity (ours), mean of two arrays
28 | B28 | -0.8 robust z of log adjusted intensity (ours), mean of two arrays
29 | B29 | -1.12 robust z of log adjusted intensity (ours), mean of two arrays
30 | B30 | -0.82 robust z of log adjusted intensity (ours), mean of two arrays
31 | B31 | -0.49 robust z of log adjusted intensity (ours), mean of two arrays
32 | B32 | -0.56 robust z of log adjusted intensity (ours), mean of two arrays
33 | B33 | -1.15 robust z of log adjusted intensity (ours), mean of two arrays
